± gives the uncertainty stated by the source.

A short description of the data set: amyloid nucleation score (Sup35N fusion, yeast selection) (log enrichment); library NNK1; higher = more nucleation; inactive = no reads after selection. Summed up:
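DiMSum was used to calculate nucleation scores as log enrichment of output over input reads, centred on the mode score of non-aggregating sequences. Sequences with fewer than 100 input reads were not scored. Input and output came from Illumina sequencing of plasmid inserts in psi-negative yeast expressing peptides of 20 random codons fused to Sup35N, induced 24 hours with 100 μM copper sulfate and then grown 7 days at 30°C on medium lacking adenine and uracil.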
On to VQPDDLARTGRLQLVLLVWN, for which the amyloid nucleation score was -0.883 ± 0.92.
On to RGCRSCAFLIPGLVLCWWKE, for which the amyloid nucleation score worked out at 0.069 ± 0.62.
The figure for KISCIISWLYDFIIKLAFFT is -0.931 ± 0.68; for GSCGYSTVVDVVCYLDLLLI it is 0.131 ± 0.43; for YSLIVTRCC it is -0.468 ± 0.41.
For TGRAPSVLHNKR, the amyloid nucleation score was -0.842 ± 0.64.
YRMIIVGLCFMVVHMAASRK: the amyloid nucleation score came out at 0.514 ± 0.69.
GILFVFFQYF showed an amyloid nucleation score of 1.95 ± 0.15.
Turning to FCSRTRMTICVLCYIHLQGR, the amyloid nucleation score was found to be 0.521 ± 0.29.
ALRRIGSFVVHLDIRAVSQT displayed an amyloid nucleation score of 1.09 ± 0.5.
For EDNRKIRRVMSIQS, the amyloid nucleation score was found to be 0.063 ± 0.57.
As to CLCLKVFLQKVVRGCNR, the amyloid nucleation score turned out to be 1.01 ± 0.29.
Regarding ECCYWPREK, the amyloid nucleation score came to 0.422 ± 0.32.
Consider SWASLIC, for which the amyloid nucleation score was -0.838 ± 0.89.
In the case of IVGVYLSLNWRHPSRQGSGC, the amyloid nucleation score amounted to 0.321 ± 0.19.
ILRRRMHDG: the amyloid nucleation score was found to be 0.247 ± 1.4.
Next, FVSPVTSSQNSPVIVVRSLL: -0.561 ± 0.48; PFIARAFKLMLAWVLFCRAA: 0.171 ± 0.75.
CFNVYWLFAIGGYGMRLRSD gave an amyloid nucleation score of -1.04 ± 1.1.
The substance PIWLTDKFGG returned an amyloid nucleation score of -0.24 ± 0.61.
Take MRMISFKTVGALFVYCLSLG: the amyloid nucleation score was 0.313 ± 0.49.
RFGWISMYSCSRWHCMRNLY came in with an amyloid nucleation score of 1.13 ± 0.19.
Next, ELVLSSSWFRRNSYALCKLR: 0.716 ± 1; IGHVNTYCCIADWSWVRGAG: 8.895 ± 0.044; MYCITDEVNRYKCCKTGKEF: 0.634 ± 0.32.
For FYGTLVCVRRYSVVLNSNLE, the amyloid nucleation score worked out at 0.751 ± 0.93.
With QKRRKLARLASRYFPS, the amyloid nucleation score is 0.325 ± 0.57.
As to VSETAFLNTNKWGPKCLMWN, the amyloid nucleation score was -1.42 ± 1.
For GRECLRCTFKMVGWVATEIA, the amyloid nucleation score was -0.521 ± 0.71.
With VYLKKSLFL, the amyloid nucleation score was -0.484 ± 0.9.
Substance VRKSVSTFT showed an amyloid nucleation score of 0.055 ± 0.37.
The figure for DLLVNCDAVKLVYLSGYVDV is 0.342 ± 0.23; for YRMVCVLITVPANQIYCLLH it is 0.541 ± 0.69.
For AFLKLSTRWWKPVIFYKCDL, the amyloid nucleation score is -0.932 ± 1.1.
Turning to GSKGMGSERQVECFTKI, the amyloid nucleation score was -0.505 ± 0.37.
Regarding RKRHSDNYRCEVNRS, the amyloid nucleation score was -0.235 ± 0.52.
For LDCAKTVVTGVVLGRQLCQN, the amyloid nucleation score stood at 0.662 ± 0.39.
Substance LINFLLVTVCTSWIGISLCV returned an amyloid nucleation score of 0.358 ± 0.39.
Consider NFCLWHNWYVMSVLERGD, for which the amyloid nucleation score was 7.893 ± 0.071.
Next, FSDTRTGGDSTPKN: 0.108 ± 0.36; HVMRSSGRHGRRRLT: -0.631 ± 1.1; WLIQE: 1.24 ± 0.71.
EFVLGGASRVELY had an amyloid nucleation score of -0.624 ± 0.64.
SNYYWVAWGDSPLQVHP gave an amyloid nucleation score of 0.626 ± 0.81.
SASPLVAMDNVGCA: the amyloid nucleation score was -0.748 ± 0.37.
The substance NYRFVCEPYFYSNCPPAQWT gave an amyloid nucleation score of 0.02 ± 0.59.
The figure for CGFDRMAMYWVNFDLHWSSA is 0.121 ± 0.36; for GCGRGMLLGFAPWITCPWMS it is 0.971 ± 0.49.
WRSSHINLGGIFRLSHTIYC showed an amyloid nucleation score of -0.16 ± 0.38.
LFVLLQHLAATFYVQVLTSR showed an amyloid nucleation score of -0.028 ± 0.89.
The substance LVSQVFNVQRYGGRTVPQSF showed an amyloid nucleation score of 0.364 ± 1.2.
The substance TVIYSNYAVICMGSMSQVDT showed an amyloid nucleation score of 7.762 ± 0.059.
Turning to HGYFSNMWSYRRYQLLKLSP, the amyloid nucleation score turned out to be 0.664 ± 0.77.
As to WETWYSVCYAIEIRSYKIRV, the amyloid nucleation score was -1.3 ± 1.
For SVSNTYERE, the amyloid nucleation score worked out at 0.879 ± 0.68.
Next, VYFGRISLWLNMH: -0.449 ± 0.59.
With FMPYWNTLNFMSYGVRLIHK, the amyloid nucleation score is 0.231 ± 0.65.
In turn, RLSLAESAPLVNFVSTALGK had an amyloid nucleation score of -0.168 ± 0.93.
DMYYNQTRVQKPPVMPQSLK yielded an amyloid nucleation score of -0.667 ± 0.78.
For FCDPVYMPSERFWNAYMCTL, the amyloid nucleation score came out at 1.19 ± 0.9.
With MGAVKH, the amyloid nucleation score was -0.017 ± 0.3.
As to LRIARVYVYKIRAWSVVSGK, the amyloid nucleation score was -1.35 ± 0.63.
The figure for LYVFHRRYYWANYDDRYPLP is 0.613 ± 0.48; for SCARFITTNNQDSRLVASSN it is -0.718 ± 0.77.
Next, FCFILSNVFLGLWMI: -1.37 ± 2.7; ACFWYTL: 0.024 ± 0.47; RPGWSHRITENLPFVEKVGP: -0.502 ± 0.7.
Next, SCPAGFCCAGANKYHVLGV: -0.137 ± 0.56.
Regarding DETLEEPCT, the amyloid nucleation score came to 0.017 ± 0.43.
The figure for HNMHFSPWIKCNSVYEFSGR is 1.56 ± 0.73.
The figure for NCRGKREMGRKSSRSLVHGW is -0.039 ± 0.49.
With RKIEWTVSLRGGRKCYFSGE, the amyloid nucleation score was -0.012 ± 0.3.
On to PFGLRYQLRIRHYTMIEELS, for which the amyloid nucleation score is 1.88 ± 0.29.
In the case of CFEVHTHSESLL, the amyloid nucleation score was -0.662 ± 0.72.
With GGTNFKDDDV, the amyloid nucleation score was found to be 0.683 ± 1.
For the substance INLVTKYHLSITCSHSCQA, the amyloid nucleation score was 7.204 ± 0.05.
GDGVGFVLITHWDVVDDMGC had an amyloid nucleation score of 0.724 ± 0.93.
Substance SFSGYMLDCGEHTQMYSASI returned an amyloid nucleation score of 0.185 ± 0.35.
For LCMNCVIQSDKRSSLLCYER, the amyloid nucleation score was -0.636 ± 1.2.
DVYVWGGCLVSIKVLWMAWG came in with an amyloid nucleation score of 0.117 ± 0.94.
In turn, YKSLLGRAVMFKRHQPGPRA had an amyloid nucleation score of 0.248 ± 0.39.
Next, ADNFIGVVYTMLVRRYMPNS: -1.65 ± 1.2; LHLERALLTNRLFRS: 0.077 ± 0.49.
The figure for IKLQWS is -0.323 ± 0.53.
With TYQTVSKKSEFIMPFGLCSN, the amyloid nucleation score was -0.011 ± 0.17.
Substance VGWSMWNMIRMMVVPVAGPG yielded an amyloid nucleation score of 0.253 ± 0.35.
Regarding ICAPVEIL, the amyloid nucleation score is -0.176 ± 0.76.
TSEDMC: the amyloid nucleation score is -1.18 ± 2.1.
Take LTFNAMMMMIMLIMSAYIVS: the amyloid nucleation score worked out at 1.89 ± 0.46.
ISSYTCCFYSYHQSHVMPLG had an amyloid nucleation score of 5.848 ± 0.051.
Next, GSNGMRGLRWGL: -0.485 ± 0.31; VDPYQVNYLNKLVTENYRVS: 0.097 ± 0.33; GSYGLDGILDQWTPLHSLGG: 0.64 ± 0.46.
Substance MPGLWVFASALTQQEGTLEM came in with an amyloid nucleation score of -0.251 ± 0.79.
With GNYSG, the amyloid nucleation score entry is “inactive”.
Regarding ISTCLRTSFYVDVGNMSFCN, the amyloid nucleation score was 0.206 ± 0.44.
In turn, SGEDVSGCQDLFALVPMGQG had an amyloid nucleation score of 0.495 ± 0.51.
In turn, SAWKDAYFRVDVNEDFVS displayed an amyloid nucleation score of 0.154 ± 0.32.
Next, YYCRNPRSMG: -0.134 ± 1.1; LFCFNRVD: “inactive”.
Next, TLQTTWLKNLGDLSSSREAS: -0.184 ± 0.41; SMYVYDRGTGILLSCGVYFF: 1.82 ± 0.11; GWMNCHNSTWRVGQALSSSR: 0.282 ± 0.48.
DCEGLFI displayed an amyloid nucleation score of 0.864 ± 0.74.
The substance WRLRCLRELV came in with an amyloid nucleation score of -0.542 ± 0.65.
Next, GGFFALTYVWSHVHRWS: “inactive”; VRDSGRIGMFKMGKV: -0.824 ± 0.88; SCNYWCERVQGNSLWVGWVH: -0.126 ± 0.35.
YKGMSAHFGLILFDCCLNGS displayed an amyloid nucleation score of 7.516 ± 0.067.
Next, AKEVLYFR: 0.505 ± 0.24; VWVHKAY: -0.021 ± 1.2.
Next, HCINGCYNSEDVIIVDLLAF: “inactive”.
The substance HYQMLDAISRSSVYVLSKSR showed an amyloid nucleation score of -0.239 ± 0.29.
With TFVGLRVSAHRTQWALGDT, the amyloid nucleation score is -1.51 ± 2.4.
LAPALRTETQICRRIHSVQL had an amyloid nucleation score of 1.62 ± 0.26.
The figure for MFSNILHAHLRAWA is 0.53 ± 0.27.
For the substance SGSRGMFSKCVDK, the amyloid nucleation score is 1.86 ± 0.1.
HILTMDLLPTPLSRQLRNMN had an amyloid nucleation score of -0.763 ± 0.97.
The substance NICDFLIYVYYLRSVCDI returned an amyloid nucleation score of -0.358 ± 0.41.
GRPFALRWLDLGLLTDDPKG showed an amyloid nucleation score of -0.164 ± 0.32.
On to NWHAVNCRSPST, for which the amyloid nucleation score came out at 1.07 ± 0.51.
LHHRSLFDCESNTAGSPRFV: the amyloid nucleation score was -0.279 ± 0.47.
The figure for IDSVQFTLQTASHPRSDDDC is -0.143 ± 0.58; for ISYQVLFIDRWGCRSLPCVW it is 0.395 ± 0.39.
The figure for SQQVHISNVHVLYLRWWTGC is 0.696 ± 0.74.
On to SQFLLYSPINFLCFAENHNG, for which the amyloid nucleation score came out at 6.36 ± 0.078.
The substance NFRGLRLSKIYLLHHAGNLW displayed an amyloid nucleation score of 0.533 ± 0.47.
In the case of EYGVSLV, the amyloid nucleation score was 0.089 ± 0.53.
For RRIRFNIRFTTCL, the amyloid nucleation score came to 0.802 ± 0.74.
Substance AAVRALLYRCVVHVRFFFKE yielded an amyloid nucleation score of 1.06 ± 0.54.
KREFQCWTSACFFDISSAEL had an amyloid nucleation score of 0.34 ± 0.79.
Next, GGTRDVFEFHNSDTPDAVYQ: -0.043 ± 0.3.
WLLREIERMDLGDWQLELNI displayed an amyloid nucleation score of -0.707 ± 0.83.
Take NMGTVMYGVIQACRAHVNVV: the amyloid nucleation score amounted to 0.22 ± 0.45.
NFVGFL: the amyloid nucleation score was -0.33 ± 0.58.
In turn, VRTLLWSS returned an amyloid nucleation score of -1.55 ± 2.4.
The figure for VLWPLTISLWC is -0.236 ± 0.51; for LWYCYYSVVFILSGALSHCV it is -0.252 ± 1.4.
VISMTKMLAWFTGLVYGYYG: the amyloid nucleation score is -0.21 ± 0.35.
The substance DQSWSREWPCVLVHHVHYKD came in with an amyloid nucleation score of 0.626 ± 0.28.

The values are drawn from the supplement of paper PMC12042874.
